Data taken from patent publication US20200317768A1 (published 2020).

T1: cynomolgus monkey FcγRIIIaS extracellular domain, His-tagged (cynomolgus monkey, UniProt Q8SPW2 21-206 at identity 1.00))
T1 construct: also called cyno FcγRIIIaS; cynoFcγRIIIaS
T1 chain: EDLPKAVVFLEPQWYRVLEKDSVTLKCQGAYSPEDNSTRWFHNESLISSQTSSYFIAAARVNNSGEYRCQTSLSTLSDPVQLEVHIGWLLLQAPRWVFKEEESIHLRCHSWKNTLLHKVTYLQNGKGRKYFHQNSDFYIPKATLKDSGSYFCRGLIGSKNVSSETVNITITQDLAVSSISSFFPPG

T2: human FcγRIIaR extracellular domain, His-tagged (human, UniProt P12318 34-217)
T2 construct: also called human FcγRIIa (type R); FcgRIIaR
T2 chain: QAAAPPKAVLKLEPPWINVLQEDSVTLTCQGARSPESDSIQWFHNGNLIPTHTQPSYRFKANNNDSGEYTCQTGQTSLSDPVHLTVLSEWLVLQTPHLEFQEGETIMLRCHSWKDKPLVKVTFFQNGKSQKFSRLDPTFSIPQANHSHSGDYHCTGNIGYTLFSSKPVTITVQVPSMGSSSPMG

T3: human FcγRIIb extracellular domain, His-tagged (human, UniProt P31994 43-217)
T3 construct: also called FcgRIIb (human)
T3 sequence: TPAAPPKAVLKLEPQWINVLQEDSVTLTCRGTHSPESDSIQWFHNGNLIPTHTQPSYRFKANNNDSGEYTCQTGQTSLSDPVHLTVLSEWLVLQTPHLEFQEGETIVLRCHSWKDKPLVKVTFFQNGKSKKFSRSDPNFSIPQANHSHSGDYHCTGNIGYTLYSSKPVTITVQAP

T4: cynomolgus monkey FcγRIIa3 extracellular domain, His-tagged (cynomolgus monkey)
T4 construct: also called cyno FcγRIIa3; cynoFcgRIIa3
T4 chain: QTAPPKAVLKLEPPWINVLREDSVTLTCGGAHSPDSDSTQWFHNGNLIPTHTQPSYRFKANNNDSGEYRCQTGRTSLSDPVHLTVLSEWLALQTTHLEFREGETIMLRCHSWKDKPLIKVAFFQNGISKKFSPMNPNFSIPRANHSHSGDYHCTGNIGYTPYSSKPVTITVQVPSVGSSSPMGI

T5: human FcγRIIaH extracellular domain, His-tagged (human, UniProt P12318 34-217)
T5 construct: also called human FcγRIIa (type H); FcgRIIaH
T5 sequence: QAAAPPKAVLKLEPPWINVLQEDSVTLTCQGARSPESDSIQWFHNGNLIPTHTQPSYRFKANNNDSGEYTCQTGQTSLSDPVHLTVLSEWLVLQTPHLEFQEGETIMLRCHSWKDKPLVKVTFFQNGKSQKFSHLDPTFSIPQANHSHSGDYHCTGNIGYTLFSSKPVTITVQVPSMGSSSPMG

T6: cynomolgus monkey FcγRIIa2 extracellular domain, His-tagged (cynomolgus monkey)
T6 construct: also called cyno FcγRIIa2; cynoFcgRIIa2
T6 chain: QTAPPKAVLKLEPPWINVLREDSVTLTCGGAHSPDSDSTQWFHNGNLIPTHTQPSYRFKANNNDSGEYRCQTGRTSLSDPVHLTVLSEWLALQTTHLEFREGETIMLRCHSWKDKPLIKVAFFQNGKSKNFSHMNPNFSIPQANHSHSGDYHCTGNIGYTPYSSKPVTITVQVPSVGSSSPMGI

T7: cynomolgus monkey FcγRIIb extracellular domain, His-tagged (cynomolgus monkey)
T7 construct: also called cyno FcγRIIb; cynoFcγRIIb
T7 chain: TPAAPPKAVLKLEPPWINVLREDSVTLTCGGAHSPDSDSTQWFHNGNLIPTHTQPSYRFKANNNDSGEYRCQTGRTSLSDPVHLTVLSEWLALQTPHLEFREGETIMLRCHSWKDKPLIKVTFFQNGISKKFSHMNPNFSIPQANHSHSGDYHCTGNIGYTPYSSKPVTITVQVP

T8: cynomolgus monkey FcγRIIa1 extracellular domain, His-tagged (cynomolgus monkey)
T8 construct: also called cyno FcγRIIa1; cynoFcgRIIa1
T8 chain: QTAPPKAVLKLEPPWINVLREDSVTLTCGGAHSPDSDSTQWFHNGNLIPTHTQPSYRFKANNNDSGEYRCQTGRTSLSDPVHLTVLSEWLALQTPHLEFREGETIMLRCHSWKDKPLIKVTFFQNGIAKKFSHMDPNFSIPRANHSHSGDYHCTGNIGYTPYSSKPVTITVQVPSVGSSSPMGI


Tests used:
[1] = molecular target: T1, cynomolgus monkey FcγRIIIaS …; assay: SPR; KD of SG1 / KD of variant;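 also: relative to parent M103205H795-SG1 carrying the SG1 human heavy chain constant region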
[2] = molecular target: T2, human FcγRIIaR extracellular domain, …; assay: SPR; KD of SG1 / KD of variant;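 also: relative to parent M103205H795-SG1 carrying the SG1 human heavy chain constant region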
[3] = molecular target: T3, human FcγRIIb extracellular domain, …; assay: SPR; KD of SG1 / KD of variant;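 also: relative to parent M103205H795-SG1 carrying the SG1 human heavy chain constant region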
[4] = molecular target: T4, cynomolgus monkey FcγRIIa3 …; assay: SPR; KD of SG1 / KD of variant;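 also: relative to parent M103205H795-SG1 carrying the SG1 human heavy chain constant region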
[5] = molecular target: T9, human FcγRIIIaV extracellular domain, His-tagged (human, UniProt P08637 17-208); assay: SPR; KD of SG1 / KD of variant
T9 construct: also called FcgRIIIaV

[6] = molecular target: T5, human FcγRIIaH extracellular domain, …; assay: SPR; KD of SG1 / KD of variant
[7] = molecular target: T6, cynomolgus monkey FcγRIIa2 …; assay: SPR; KD of SG1 / KD of variant
[8] = molecular target: T7, cynomolgus monkey FcγRIIb extracellular …; assay: SPR; KD of SG1 / KD of variant
[9] = molecular target: T8, cynomolgus monkey FcγRIIa1 …; assay: SPR; KD of SG1 / KD of variant
[10] = molecular target: T1, cynomolgus monkey FcγRIIIaS …; assay: SPR, antibody captured, FcgR analyte
Protocol: (§1) The kinetic analysis of interactions between these antibodies and FcγR was carried out using BIACORE® T200 or BIACORE® 4000 (GE Healthcare). HBS-EP+ (GE Healthcare) was used as the running buffer, and the measurement temperature was set to 25° C. A chip produced by immobilizing Protein A. Protein A/G or mouse anti-human IgG kappa light chain (BD Biosciences) onto a Series S Sensor Chip CM4 or CM5 (GE Healthcare) by the amine-coupling method was used. […] After the measurement, the antibody captured on the chip was washed off by allowing reaction with 10 mM glycine-HCl, pH1.5 and 25 mM NaOH so that the chip was regenerated and used repeatedly. The sensorgrams obtained as measurement results were analyzed by the 1:1 Langmuir binding model using the BIACORE® Evaluation Software to calculate the binding rate constant ka (L/mol/s) and dissociation rate constant kd (l/s), and the dissociation constant KD (mol/L) was calculated from these values. […] Regarding such interactions, KD values were calculated using the following 1:1 binding model described in BIACORE® T100 Software Handbook BR1006-48 Edition AE.
(§2) The behavior of interacting molecules according to the 1:1 binding model on BIACORE® can be described by Equation 1: Req=C·R max/(KD+C)+RI, wherein, Req is a plot of steady-state binding levels to analyte concentration. C is concentration, RI is bulk refractive index contribution in the sample, and Rmax is analyte binding capacity of the surface. When this equation is rearranged, KD can be expressed as Equation 2: KD=C·Rmax/(Req−RI)−C. KD can be calculated by substituting the values of Rmax, RI, and C into Equation 1 or Equation 2. From the current measurement conditions, RI=0, C=2 μmol/L can be used.

[11] = molecular target: T2, human FcγRIIaR extracellular domain, …; assay: SPR, antibody captured, FcgR analyte
Protocol: as §1, §2

[12] = molecular target: T3, human FcγRIIb extracellular domain, …; assay: SPR, antibody captured, FcgR analyte
Protocol: as §1, §2

[13] = molecular target: T4, cynomolgus monkey FcγRIIa3 …; assay: SPR, antibody captured, FcgR analyte
Protocol: as §1, §2

[14] = molecular target: T5, human FcγRIIaH extracellular domain, …; assay: SPR, antibody captured, FcgR analyte
Protocol: as §1, §2

[15] = molecular target: T6, cynomolgus monkey FcγRIIa2 …; assay: SPR, antibody captured, FcgR analyte
Protocol: as §1, §2

[16] = molecular target: T7, cynomolgus monkey FcγRIIb extracellular …; assay: SPR, antibody captured, FcgR analyte
Protocol: as §1, §2

[17] = molecular target: T8, cynomolgus monkey FcγRIIa1 …; assay: SPR, antibody captured, FcgR analyte
Protocol: as §1, §2

[18] = molecular target: T9, human FcγRIIIaV extracellular domain, …; assay: SPR, antibody captured, FcgR analyte
Protocol: as §1, §2

T9 sequence (P08637 17-208 F176V): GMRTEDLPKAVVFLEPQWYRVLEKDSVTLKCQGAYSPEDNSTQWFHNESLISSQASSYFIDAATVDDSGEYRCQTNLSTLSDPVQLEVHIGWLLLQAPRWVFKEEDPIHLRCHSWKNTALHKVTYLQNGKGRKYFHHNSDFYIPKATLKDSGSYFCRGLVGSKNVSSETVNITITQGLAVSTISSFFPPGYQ

Row | Binder | KD fold (SG1 = 1) [1] | KD fold (SG1 = 1) [2] | KD fold (SG1 = 1) [3] | KD fold (SG1 = 1) [4] | KD fold (SG1 = 1) [5] | KD fold (SG1 = 1) [6] | KD fold (SG1 = 1) [7] | KD fold (SG1 = 1) [8] | KD fold (SG1 = 1) [9] | Kd [10] | Kd [11] | Kd [12] | Kd [13] | Kd [14] | Kd [15] | Kd [16] | Kd [17] | Kd [18]
1 | M103205H795-MY001/M103202L889-SK1 (antibody, human IgG1, kappa, Substitution put into M103205H795-SG1) heavy: not shown light: DIVMTQSPATLSLSPGERATLSCTSSQSVYHANWLSWFQQKPGQPPKLLIYWASTLAYGVPSRFSGSGSGTDFTLTISSLQPEDAATYYCAGGYGGGRYAFGQGTKVEIKRTVAAPSVFIFPPSDEQLKSGTASVVCLLNNFYPREAKVQWKVDNALQSGNSQESVTEQDSKDSTYSLSSTLTLSKADYEKHKVYACEVTHQGLSSPVTKSFNRGEC | 0.03 fold | 0.1 fold | 0.6 fold | 1.2 fold | 0.84 fold | 0.2 fold | 1.4 fold | 1 fold | 1.1 fold | 1200 nM | 8200 nM | 7700 nM | 15000 nM | 3200 nM | 3500 nM | 1800 nM | 2900 nM | –
2 | M103205H795-MY074/M103202L889-SK1 (antibody, human IgG1, kappa, Substitution put into M103205H795-SG1) heavy: not shown light: DIVMTQSPATLSLSPGERATLSCTSSQSVYHANWLSWFQQKPGQPPKLLIYWASTLAYGVPSRFSGSGSGTDFTLTISSLQPEDAATYYCAGGYGGGRYAFGQGTKVEIKRTVAAPSVFIFPPSDEQLKSGTASVVCLLNNFYPREAKVQWKVDNALQSGNSQESVTEQDSKDSTYSLSSTLTLSKADYEKHKVYACEVTHQGLSSPVTKSFNRGEC | 1.33 fold | 5.2 fold | 1.3 fold | 2.7 fold | 1.45 fold | 7.5 fold | 2.2 fold | 1.6 fold | 1.6 fold | 270 nM | – | 8600 nM | 6200 nM | 92 nM | – | 1100 nM | 2000 nM | 560 nM

More lines, in order of falling Kd [10], values ahead:

Row | KD fold (SG1 = 1) [1] | KD fold (SG1 = 1) [2] | KD fold (SG1 = 1) [3] | KD fold (SG1 = 1) [4] | KD fold (SG1 = 1) [5] | KD fold (SG1 = 1) [6] | KD fold (SG1 = 1) [7] | KD fold (SG1 = 1) [8] | KD fold (SG1 = 1) [9] | Kd [10] | Kd [11] | Kd [12] | Kd [13] | Kd [14] | Kd [15] | Kd [16] | Kd [17] | Kd [18] | Binder
3 | 0.82 fold | 1.1 fold | 1.2 fold | 2.1 fold | 1.53 fold | 0.7 fold | 1.6 fold | 1.1 fold | 6.3 fold | 440 nM | 980 nM | 4000 nM | 8000 nM | 1000 nM | 3100 nM | 1600 nM | – | 530 nM | M103205H795-MY042/M103202L889-SK1 (antibody, human IgG1, kappa, Substitution put into M103205H795-SG1) heavy: not shown light: DIVMTQSPATLSLSPGERATLSCTSSQSVYHANWLSWFQQKPGQPPKLLIYWASTLAYGVPSRFSGSGSGTDFTLTISSLQPEDAATYYCAGGYGGGRYAFGQGTKVEIKRTVAAPSVFIFPPSDEQLKSGTASVVCLLNNFYPREAKVQWKVDNALQSGNSQESVTEQDSKDSTYSLSSTLTLSKADYEKHKVYACEVTHQGLSSPVTKSFNRGEC
4 | 2.4 fold | 6.5 fold | 7 fold | 1.7 fold | 2.38 fold | 1.4 fold | 1.8 fold | 1.8 fold | 1.4 fold | 150 nM | 170 nM | 660 nM | 9900 nM | 490 nM | 2800 nM | 1000 nM | – | 340 nM | M103205H795-MY011/M103202L889-SK1 (antibody, human IgG1, kappa, Put into M103205H795-SG1) heavy: not shown light: DIVMTQSPATLSLSPGERATLSCTSSQSVYHANWLSWFQQKPGQPPKLLIYWASTLAYGVPSRFSGSGSGTDFTLTISSLQPEDAATYYCAGGYGGGRYAFGQGTKVEIKRTVAAPSVFIFPPSDEQLKSGTASVVCLLNNFYPREAKVQWKVDNALQSGNSQESVTEQDSKDSTYSLSSTLTLSKADYEKHKVYACEVTHQGLSSPVTKSFNRGEC
